According to patent US20060270591A1 (published 2006):

T1: GST-ARA267C (ARA267 aa 1716-2427) (human, UniProt Q96L73 1985-2696)
T1 sequence: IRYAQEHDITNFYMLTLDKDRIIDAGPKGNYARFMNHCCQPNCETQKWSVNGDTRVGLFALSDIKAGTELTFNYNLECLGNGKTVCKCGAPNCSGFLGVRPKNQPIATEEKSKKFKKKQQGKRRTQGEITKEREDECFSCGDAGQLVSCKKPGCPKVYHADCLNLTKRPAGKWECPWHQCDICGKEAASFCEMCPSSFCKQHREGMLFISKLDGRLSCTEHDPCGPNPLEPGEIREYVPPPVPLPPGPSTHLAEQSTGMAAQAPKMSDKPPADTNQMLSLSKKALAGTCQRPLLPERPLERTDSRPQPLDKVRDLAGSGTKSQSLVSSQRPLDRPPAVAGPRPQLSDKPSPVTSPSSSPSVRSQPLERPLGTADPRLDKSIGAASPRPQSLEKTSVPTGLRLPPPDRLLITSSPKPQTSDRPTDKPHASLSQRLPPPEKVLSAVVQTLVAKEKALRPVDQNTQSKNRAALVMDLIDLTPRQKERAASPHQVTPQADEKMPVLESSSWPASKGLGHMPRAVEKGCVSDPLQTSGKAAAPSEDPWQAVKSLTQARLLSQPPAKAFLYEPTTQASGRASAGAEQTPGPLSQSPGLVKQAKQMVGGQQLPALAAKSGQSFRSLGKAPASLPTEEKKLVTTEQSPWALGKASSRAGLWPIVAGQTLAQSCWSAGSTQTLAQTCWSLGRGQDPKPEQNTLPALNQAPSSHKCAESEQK

T2: GST-ARA267N2 (ARA267 aa 1-984) (human, UniProt Q96L73 280-1253)
T2 sequence: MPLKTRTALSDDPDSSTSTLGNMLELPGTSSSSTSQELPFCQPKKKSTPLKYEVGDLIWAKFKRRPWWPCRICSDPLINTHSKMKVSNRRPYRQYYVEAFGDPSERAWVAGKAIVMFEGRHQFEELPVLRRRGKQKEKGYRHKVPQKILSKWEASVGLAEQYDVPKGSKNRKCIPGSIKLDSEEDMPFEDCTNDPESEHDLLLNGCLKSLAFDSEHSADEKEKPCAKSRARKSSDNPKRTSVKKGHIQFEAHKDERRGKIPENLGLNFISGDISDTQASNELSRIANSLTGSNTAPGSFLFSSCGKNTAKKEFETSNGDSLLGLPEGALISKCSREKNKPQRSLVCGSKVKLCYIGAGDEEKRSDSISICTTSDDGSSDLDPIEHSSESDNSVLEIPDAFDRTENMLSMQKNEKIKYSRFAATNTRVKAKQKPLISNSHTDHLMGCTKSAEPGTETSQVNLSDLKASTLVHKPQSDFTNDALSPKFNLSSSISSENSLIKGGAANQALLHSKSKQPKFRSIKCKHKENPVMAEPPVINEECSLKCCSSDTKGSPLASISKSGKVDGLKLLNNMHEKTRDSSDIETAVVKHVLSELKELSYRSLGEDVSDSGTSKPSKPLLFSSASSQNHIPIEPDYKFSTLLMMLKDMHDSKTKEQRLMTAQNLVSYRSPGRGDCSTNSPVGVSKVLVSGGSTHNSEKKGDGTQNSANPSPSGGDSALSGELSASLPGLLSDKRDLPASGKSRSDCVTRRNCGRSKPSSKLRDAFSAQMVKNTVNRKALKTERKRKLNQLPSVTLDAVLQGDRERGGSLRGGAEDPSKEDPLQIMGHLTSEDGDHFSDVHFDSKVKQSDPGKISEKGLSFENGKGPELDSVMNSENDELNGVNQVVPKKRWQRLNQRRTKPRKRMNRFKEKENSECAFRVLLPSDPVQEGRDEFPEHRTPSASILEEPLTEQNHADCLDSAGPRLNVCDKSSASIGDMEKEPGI

T3: androgen receptor (AR), full-length, human (human, UniProt P10275 1-920)
T3 sequence: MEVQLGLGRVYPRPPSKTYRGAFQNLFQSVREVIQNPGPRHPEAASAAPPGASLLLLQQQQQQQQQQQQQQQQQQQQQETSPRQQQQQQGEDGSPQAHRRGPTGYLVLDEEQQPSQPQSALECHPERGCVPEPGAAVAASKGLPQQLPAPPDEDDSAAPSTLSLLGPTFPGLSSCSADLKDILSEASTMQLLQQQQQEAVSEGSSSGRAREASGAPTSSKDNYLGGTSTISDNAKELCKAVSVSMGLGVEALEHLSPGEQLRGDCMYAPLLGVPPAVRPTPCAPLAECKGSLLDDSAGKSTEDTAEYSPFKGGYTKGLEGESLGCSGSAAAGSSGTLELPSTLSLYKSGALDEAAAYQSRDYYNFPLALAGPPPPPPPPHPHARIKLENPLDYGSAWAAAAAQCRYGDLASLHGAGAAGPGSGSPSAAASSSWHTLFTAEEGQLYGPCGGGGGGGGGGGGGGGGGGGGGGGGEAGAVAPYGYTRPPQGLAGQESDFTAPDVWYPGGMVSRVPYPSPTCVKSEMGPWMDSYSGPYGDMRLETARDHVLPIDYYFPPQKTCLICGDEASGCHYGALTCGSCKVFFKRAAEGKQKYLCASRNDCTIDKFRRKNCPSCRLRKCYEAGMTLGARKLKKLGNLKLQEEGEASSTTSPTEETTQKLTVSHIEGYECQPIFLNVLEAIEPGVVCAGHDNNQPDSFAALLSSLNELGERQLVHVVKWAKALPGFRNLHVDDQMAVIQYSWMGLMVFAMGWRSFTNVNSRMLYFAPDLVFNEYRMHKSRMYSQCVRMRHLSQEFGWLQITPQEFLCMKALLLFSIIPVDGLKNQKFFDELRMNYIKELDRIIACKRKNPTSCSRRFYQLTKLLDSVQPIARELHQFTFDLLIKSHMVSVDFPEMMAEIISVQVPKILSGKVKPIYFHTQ

B1: GAL4 AD fused C-terminal region of ARA54 (C'-ARA54, amino acids 361-474) (other)
chain: ANFNQSGNIADSSLSFTFTNSSNGPNLITTQTNSQALSQPIASSNVHDNFMNNEITASKIDDGNNSKPLSPGWTDQTAYNAFGITTGMFNTTTMDDVYNYLFDDEDTPPNPKKERNEYLQADEANKRLLDQRYGKRVIQKALEEMESKEWLEKNSKSCPCCGTPIEKLDGCNKMTCTGCMQYFCWICMGSLSRANPYKHFNDPGSPCFNRLFYAVDVDDDIWEDEVED
notes: range 768-881; Clone from the prostate cDNA library; also called pACT2-C'-ARA54
B2: GST-ARA267N1 (ARA267 aa 1-382) (other, not shown: a dimerising Fc or GST)
chain: MPLKTRTALSDDPDSSTSTLGNMLELPGTSSSSTSQELPFCQPKKKSTPLKYEVGDLIWAKFKRRPWWPCRICSDPLINTHSKMKVSNRRPYRQYYVEAFGDPSERAWVAGKAIVMFEGRHQFEELPVLRRRGKQKEKGYRHKVPQKILSKWEASVGLAEQYDVPKGSKNRKCIPGSIKLDSEEDMPFEDCTNDPESEHDLLLNGCLKSLAFDSEHSADEKEKPCAKSRARKSSDNPKRTSVKKGHIQFEAHKDERRGKIPENLGLNFISGDISDTQASNELSRIANSLTGSNTAPGSFLFSSCGKNTAKKEFETSNGDSLLGLPEGALISKCSREKNKPQRSLVCGSKVKLCYIGAGDEEKRSDSISICTTSDDGSSDLDP
B3: AR-N (aa 36-553), in vitro translated (receptor)
chain: NPGPRHPEAASAAPPGASLLLLQQQQQQQQQQQQQQQQQQQQQETSPRQQQQQQGEDGSPQAHRRGPTGYLVLDEEQQPSQPQSALECHPERGCVPEPGAAVAASKGLPQQLPAPPDEDDSAAPSTLSLLGPTFPGLSSCSADLKDILSEASTMQLLQQQQQEAVSEGSSSGRAREASGAPTSSKDNYLGGTSTISDNAKELCKAVSVSMGLGVEALEHLSPGEQLRGDCMYAPLLGVPPAVRPTPCAPLAECKGSLLDDSAGKSTEDTAEYSPFKGGYTKGLEGESLGCSGSAAAGSSGTLELPSTLSLYKSGALDEAAAYQSRDYYNFPLALAGPPPPPPPPHPHARIKLENPLDYGSAWAAAAAQCRYGDLASLHGAGAAGPGSGSPSAAASSSWHTLFTAEEGQLYGPCGGGGGGGGGGGGGGGGGGGGGGGGEAGAVAPYGYTRPPQGLAGQESDFTAPDVWYPGGMVSRVPYPSPTCVKSEMGPWMDSYSGPYGDMRLETARDHVLPIDYYF
modifications: [35S]-methionine-labeled
notes: also called AR N-terminal
B4: VP16 AD fused full-length ARA55 (other)
chain: MPRSGAPKERPAEPLTPPPSYGHQPTGQSGESSGASGDKDHLYSTVCKPRSPKPAAPAAPPFSSSSGVLGTGLCELDRLLQELNATQFNITDEIMSQFPSSKVASGEQKEDQSEDKKRPSLPSSPSPGLPKASATSATLELDRLMASLPDFRVQNHLPASGPTQPPVVSSTNEGSPSPPEPTAKGSLDTMLGLLQSDLSRRGVPTQAKGLCGSCNKPIAGQVVTALGRAWHPEHFVCGGCSTALGGSSFFEKDGAPFCPECYFERFSPRCGFCNQPIRHKMVTALGTHWHPEHFCCVSCGEPFGDEGFHEREGRPYCRRDFLQLFAPRCQGCQGPILDNYISALSLLWHPDCFVCRECFAPFSGGSFFEHEGRPLCENHFHARRGSLCPTCGLPVTGRCVSALGRRFHPDHFACTFCLRPLTKGSFQERAGKPYCQPCFLKLFG
notes: also called VP16-ARA55
B5: ARA70N (aa 1-401) with wild-type FXXLF, expressed from pSG5 (other)
chain: MNTFQDQSGSSSNREPLLRCSDARRDLELAIGGVLRAEQQIKDNLREVKAQIHSCISRHLECLRSREVWLYEQVDLIYQLKEETLQQQAQQLYSLLGQFNCLTHQLECTQNKDLANQVSVCLERLGSLTLKPEDSTVLLFEADTITLRQTITTFGSLKTIQIPEHLMAHASSANIGPFLEKRGCISMPEQKSASGIVAVPFSEWLLGSKPASGYQAPYIPSTDPQDWLTQKQTLENSQTSSRACNFFNNVGGNLKGLENWLLKSEKSSYQKCNSHSTTSSFSIEMEKVGDQELPDQDEMDLSDWLVTPQESHKLRKPENGSRETSEKFKLLFQSYNVNDWLVKTDSCTNCQGNQPKGVEIENLGNLKCLNDHLEAKKPLSTPSMVTEDWLVQNHQDPCKVE

Legend:
[1] = molecular target: T4, GAL4 DBD fused with C-terminal fragment (aa 595-918) of wild-type AR (human, UniProt P04386 1-147 (Saccharomyces cerevisiae entry)); test: yeast two-hybrid
T4 construct: range 1-147; also called pAS2-AR; pAS2-wtAR

[2] = molecular target: T5, GAL4 DBD fused with C-terminal fragment (aa 595-918) of mARt877s (human, UniProt P04386 1-147 (Saccharomyces cerevisiae entry)); test: yeast two-hybrid screen of prostate cDNA library
T5 construct: range 1-147; Yeast two-hybrid bait; the text also writes t877a in places; also called pAS2-mtARt877s; mtARt877s

[3] = molecular target: B3; test: GST pull-down
Experimental: (§1) After several washes with NETN buffer [20 mM Tris/pH 8.0, 100 mM NaCl, 6 mM MgCL₂, 1.0 mM EDTA, 1.0 mM DTT, 0.5% (vol/vol) Nonidet P-40, 1 mM PMSF, and 8% glycerol], the bound proteins were separated on SDS-PAGE gel and visualized by PhosphorImager (Molecular Dynamics).
(§2) To confirm the interaction between ARA267 and AR that was shown in the yeast two-hybrid system, GST pull-down assay was applied to confirm and further map the interaction domains between ARA267 and AR.

[4] = molecular target: T1, GST-ARA267C (ARA267 aa 1716-2427); test: GST pull-down
Experimental: as §1, §2

[5] = molecular target: T2, GST-ARA267N2 (ARA267 aa 1-984); test: GST pull-down
Experimental: as §1, §2

[6] = molecular target: T6, GAL4 empty vector (GAL4 DBD alone) (UniProt P04386 1-147); test: mammalian two-hybrid, DU145, CAT
T6 construct: range 1-147; Control

[7] = molecular target: T3, androgen receptor (AR), full-length, …; test: cell-based or functional assay

B1
binding result [1]: binds | binding result [2]: binds

B2
binding result [3]: no binding

B3
binding result [4]: no binding | binding result [5]: no binding

B4
binding result [6]: no binding

B5
AR transactivation (MMTV-LUC, COS-1, 10 nM T) [7]: 310 fold
